In patent US20070286858A1 (Pfizer, published 2007):
Where a chain is given by its changes, count along the chain named. One block for each binder: values may come before it.

Experiments:
[1] = molecular target: T1, human RAGE-Fc fusion protein (human, UniProt Q15109 23-344); assay: ELISA of in vitro translated ScFv on coated human RAGE-Fc, anti-Flag detection
T1 construct: also called hRAGE-Fc; huRAGE-Fc; not shown: Fc domain of human IgG
Description: ELISA plates coated with human RAGE-Fc (5 ug/ml) or BSA (200 ug/ml) in bicarbonate buffer overnight at 4° C., washed with PBS+tween 0.05% and blocked for 1 hour at room temperature with 2% milk powder PBS. Plates were incubated with in vitro translated ScFv for 2 hours at room temp. Plates were blocked and detection was with anti-Flag antibody (1/1000 dilution) followed by rabbit anti-mouse HRP (1/1000 dilution). […] Values for Kd of the ScFv in both formats as determined by BIACORE™ are used to determine the optimum antigen concentrations for selection experiments.

[2] = molecular target: T2, BSA (Bos taurus, UniProt P02769); assay: ELISA of E. coli periplasmic ScFv cross-linked with anti-His antibody, on coated BSA
T2 construct: control antigen in the ScFv ELISA; also called bovine serum albumin
Description: ActRIIb represents a non-binding protein expressed from the same vector as a negative control. ELISA plates were coated with human RAGE-Fc (5 ug/ml) or BSA (200 ug/ml) in bicarbonate buffer overnight at 4 °C, washed with PBS+tween 0.05% and blocked for 1 hour at room temperature with 2% milk powder PBS. Periplasmic preparations of 20 ml E. coli cultures were performed using standard procedures. The final volume of periplasmic preparations of unpurified ScFv antibodies was 1 ml of which 50 ul was pre-incubated with anti-His antibody at 1/1000 dilution for 1 hour at room temperature in a total volume of 100 ul with 2% milk powder PBS. The cross linked periplasmic preparations were added to the ELISA plate and incubated for a further 2 hours at room temperature. The plates were washed 2 times with PBS+0.05% tween and 2 times with PBS and incubated with rabbit anti-mouse HRP at 1/1000 dilution in 2% milk powder PBS. The plates were washed as before and binding was detected using standard TMB reagents. […] Starting Kd values of the ScFv in both formats as determined by BIACORE™ are used to determine the optimum antigen concentrations for affinity selections.

[3] = molecular target: rhNCAM-1 (human, UniProt P13591-3 20-603, limits assumed); assay: direct binding ELISA, receptor coated at 1 µg/ml, antibody at 20 µg/ml
Description: (§1) These receptors were chosen because they are cell-surface expressed, like RAGE, and their interaction with ligand is similarly dependent on charge. […] ELISA plates were coated overnight with 1 μg/ml of the listed receptor proteins.

[4] = molecular target: rhTLR4 (C-terminal His tag) (human, UniProt O00206 24-631); assay: as above
Description: as §1

[5] = molecular target: T3, rhVCAM-1 (human, UniProt P19320 25-698); assay: as above
T3 sequence (looked up): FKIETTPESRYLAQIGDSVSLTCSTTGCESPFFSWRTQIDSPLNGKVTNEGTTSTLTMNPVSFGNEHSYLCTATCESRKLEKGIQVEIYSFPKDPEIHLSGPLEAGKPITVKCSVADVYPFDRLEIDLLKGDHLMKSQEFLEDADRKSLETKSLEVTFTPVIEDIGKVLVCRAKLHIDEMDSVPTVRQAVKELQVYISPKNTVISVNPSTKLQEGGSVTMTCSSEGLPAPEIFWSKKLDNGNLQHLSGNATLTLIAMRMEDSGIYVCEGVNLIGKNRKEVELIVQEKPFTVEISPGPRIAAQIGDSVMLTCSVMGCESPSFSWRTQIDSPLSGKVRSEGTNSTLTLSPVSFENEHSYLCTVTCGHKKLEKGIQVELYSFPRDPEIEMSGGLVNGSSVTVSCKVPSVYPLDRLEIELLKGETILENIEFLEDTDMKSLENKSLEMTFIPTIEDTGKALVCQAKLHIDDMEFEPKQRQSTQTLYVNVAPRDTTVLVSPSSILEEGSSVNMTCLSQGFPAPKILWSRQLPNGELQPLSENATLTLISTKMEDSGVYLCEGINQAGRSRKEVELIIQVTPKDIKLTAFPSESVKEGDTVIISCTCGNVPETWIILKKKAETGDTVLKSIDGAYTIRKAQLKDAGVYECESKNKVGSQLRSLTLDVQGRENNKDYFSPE
Description: as §1

[6] = molecular target: T1, human RAGE-Fc fusion protein; assay: as above
Description: as §1

[7] = molecular target: T4, rhB7-H1-Fc (human, UniProt Q9NZQ7 19-239); assay: as above
T4 construct: not shown: Fc part not described
Description: as §1

[8] = molecular target: T5, rhICAM-1-Fc (human, UniProt P05362 28-480); assay: as above
T5 construct: also called rhlCAM-1-Fc; not shown: Fc part not described
Description: as §1

[9] = molecular target: hLox1-Fc (human, UniProt P78380 61-273); assay: as above
Description: as §1

[10] = molecular target: T6, mLox1-Fc (mouse, UniProt Q9EQ09 60-363); assay: as above
T6 construct: also called mLoxl-Fc; not shown: Fc part not described
Description: as §1

[11] = molecular target: T7, human RAGE, full length (human, UniProt Q15109 23-404); assay: FACS, 293 cells infected with human RAGE adenovirus
T7 construct: Expressed on 293 or CHO cells, or endogenous in human lung sections; also called hRAGE; cell-surface hRAGE
Description: Human 293 cells were infected with the human and murine RAGE adenovirus. Infected cells were suspended in PBS containing 1% BSA at a density of 4×10⁴ cells/ml. Cells were incubated with 100 ul of sample (diluted immune sera, hybridoma supernatants or purified antibodies) for 30 min at 4° C. After washing, cells were incubated with PE-labeled goat, anti-mouse, IgG, F(ab′)₂ (DAKO Corporation GlostrupDenmark) for 30 min at 4° C. in the dark. Cell-associated fluorescence signals were measured by a FACScan flow cytofluorometer (Becton Dickinson) using 5000 cells per treatment. Propidium iodide was used to identify dead cells, which were excluded from the analysis.

[12] = molecular target: T1, human RAGE-Fc fusion protein; assay: ELISA, coated hRAGE-Fc
Description: Antibodies were purified from hybridoma supernatants using standard procedures. Purified antibodies were evaluated for binding to soluble forms of RAGE with the use of ELISA. […] After washing and blocking with PBS containing 1% BSA and 0.05% Tween-20, 100 ul of sample (samples were in several forms: diluted immune serum, hybridoma supernatants, or purified antibodies, as indicated) was added and incubated for 1 hour at room temperature. The plates were washed with PBS, pH 7.2 and bound anti-RAGE antibodies were detected with the use of peroxidase-conjugated goat, anti-mouse IgG (H+L) (IgG) (Pierce, Rockford, Ill.) followed by incubation with the substrate TMB (BioFX Laboratories Owings Mills, Md. Laboratories). Absorbance values were determined at 450 nm in a spectrophotometer. The concentrations of monoclonal antibodies were determined with the use of peroxidase-labeled goat, anti-mouse IgG (Fcγ) (Pierce Rockford, Ill.) and a standard curve was generated by a purified, isotype-matched mouse IgG.

[13] = molecular target: T8, soluble human streptavidin-tagged RAGE (human, UniProt Q15109 23-344); assay: BIACORE capture assay, antibody on CM5 chip, hRAGE-SA 0-100 nM in solution
T8 construct: also called hRAGE-SA; human RAGE-strep
Description: The assays were performed by coating antibodies onto a CM5 BIA chip with 5000-7000 RU.

[14] = molecular target: T9, baboon RAGE (baboon (Papio cyanocephalus), UniProt Q15109 23-404 (human entry)); assay: IHC, septic baboon lung, 1 µg/ml
T9 construct: On transfected 293 cells or endogenous in baboon lung sections; also called 293-baboon RAGE; RAGE in baboon lung
T9 chain: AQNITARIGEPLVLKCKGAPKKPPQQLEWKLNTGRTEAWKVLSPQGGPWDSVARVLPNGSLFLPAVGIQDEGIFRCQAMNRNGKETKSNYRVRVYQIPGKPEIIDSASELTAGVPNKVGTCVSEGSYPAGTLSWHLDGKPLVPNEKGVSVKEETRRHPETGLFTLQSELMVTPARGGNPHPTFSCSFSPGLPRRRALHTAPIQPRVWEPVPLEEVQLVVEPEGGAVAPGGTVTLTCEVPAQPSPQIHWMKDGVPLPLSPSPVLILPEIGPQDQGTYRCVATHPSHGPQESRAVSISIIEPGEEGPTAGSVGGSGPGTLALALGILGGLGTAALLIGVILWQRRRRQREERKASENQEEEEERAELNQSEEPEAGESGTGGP
Description: Immunohistochemistry for RAGE lung tissues isolated from baboon, cynomolgus monkey, rabbit or Chinese Hamster Ovary cells over-expressing human RAGE or control CHO cells were performed using standard techniques. RAGE antibodies and rat IgG2b isotype control or mouse isotype control were used at […]. […] Following detection with HRP and Alexa Fluor 594, Alexa Fluor 488 or anti-biotin conjugated with FITC, sections were also stained with 4′-6-Diamidino-2-phenylindole (DAPI).
CHO cells stable transfected with an expression vector that expresses DNA encoding hRAGE is used as a positive control.

T6 sequence (Q9EQ09 60-363): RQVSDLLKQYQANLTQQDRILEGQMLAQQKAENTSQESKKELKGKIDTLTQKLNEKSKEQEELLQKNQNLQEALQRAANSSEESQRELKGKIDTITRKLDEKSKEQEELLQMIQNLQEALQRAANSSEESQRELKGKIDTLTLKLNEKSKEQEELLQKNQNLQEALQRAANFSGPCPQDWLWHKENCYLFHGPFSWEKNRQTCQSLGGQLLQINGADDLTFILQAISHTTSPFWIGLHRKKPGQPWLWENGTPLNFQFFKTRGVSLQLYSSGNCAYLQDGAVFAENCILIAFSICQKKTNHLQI
rhNCAM-1, sequence (P13591 other isoform, or with tags, fused parts or gaps limits assumed): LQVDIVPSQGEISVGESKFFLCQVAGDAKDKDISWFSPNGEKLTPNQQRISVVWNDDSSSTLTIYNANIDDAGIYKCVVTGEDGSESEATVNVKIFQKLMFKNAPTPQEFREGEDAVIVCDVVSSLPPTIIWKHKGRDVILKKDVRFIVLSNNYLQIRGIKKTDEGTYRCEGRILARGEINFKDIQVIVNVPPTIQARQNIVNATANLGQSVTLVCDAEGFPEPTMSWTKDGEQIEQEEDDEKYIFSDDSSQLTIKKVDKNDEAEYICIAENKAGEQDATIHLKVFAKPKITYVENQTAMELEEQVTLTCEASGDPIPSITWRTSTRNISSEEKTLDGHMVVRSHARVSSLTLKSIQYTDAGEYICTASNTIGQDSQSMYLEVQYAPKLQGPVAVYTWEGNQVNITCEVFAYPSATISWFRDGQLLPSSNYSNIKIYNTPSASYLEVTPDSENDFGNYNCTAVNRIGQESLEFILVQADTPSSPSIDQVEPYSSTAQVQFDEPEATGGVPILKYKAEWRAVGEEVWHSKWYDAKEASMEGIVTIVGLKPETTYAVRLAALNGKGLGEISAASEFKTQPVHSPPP
rhTLR4 (C-terminal His tag), sequence (O00206 24-631 limits assumed): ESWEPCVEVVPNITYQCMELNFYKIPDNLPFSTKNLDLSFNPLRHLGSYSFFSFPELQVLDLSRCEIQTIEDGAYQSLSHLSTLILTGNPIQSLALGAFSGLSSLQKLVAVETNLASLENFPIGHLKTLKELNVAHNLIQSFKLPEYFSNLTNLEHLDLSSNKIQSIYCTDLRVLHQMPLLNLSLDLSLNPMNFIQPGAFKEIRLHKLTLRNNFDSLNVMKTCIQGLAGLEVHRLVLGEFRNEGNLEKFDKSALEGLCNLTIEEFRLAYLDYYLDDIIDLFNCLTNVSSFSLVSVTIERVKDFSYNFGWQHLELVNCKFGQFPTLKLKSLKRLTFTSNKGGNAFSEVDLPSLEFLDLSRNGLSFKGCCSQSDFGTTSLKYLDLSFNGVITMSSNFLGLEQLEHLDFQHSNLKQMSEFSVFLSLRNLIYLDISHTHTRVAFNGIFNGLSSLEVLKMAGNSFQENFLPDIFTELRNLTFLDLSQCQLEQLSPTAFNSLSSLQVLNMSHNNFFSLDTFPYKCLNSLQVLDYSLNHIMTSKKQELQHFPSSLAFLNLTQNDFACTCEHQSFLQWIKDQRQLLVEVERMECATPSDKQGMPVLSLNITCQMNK
T4 sequence (Q9NZQ7 19-239): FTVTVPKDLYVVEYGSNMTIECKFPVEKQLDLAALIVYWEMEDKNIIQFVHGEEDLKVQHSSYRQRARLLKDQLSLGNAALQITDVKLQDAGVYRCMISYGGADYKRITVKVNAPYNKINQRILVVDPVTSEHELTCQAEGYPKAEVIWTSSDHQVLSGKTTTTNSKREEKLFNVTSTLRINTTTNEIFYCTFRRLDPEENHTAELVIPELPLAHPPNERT
T5 sequence (P05362 28-480): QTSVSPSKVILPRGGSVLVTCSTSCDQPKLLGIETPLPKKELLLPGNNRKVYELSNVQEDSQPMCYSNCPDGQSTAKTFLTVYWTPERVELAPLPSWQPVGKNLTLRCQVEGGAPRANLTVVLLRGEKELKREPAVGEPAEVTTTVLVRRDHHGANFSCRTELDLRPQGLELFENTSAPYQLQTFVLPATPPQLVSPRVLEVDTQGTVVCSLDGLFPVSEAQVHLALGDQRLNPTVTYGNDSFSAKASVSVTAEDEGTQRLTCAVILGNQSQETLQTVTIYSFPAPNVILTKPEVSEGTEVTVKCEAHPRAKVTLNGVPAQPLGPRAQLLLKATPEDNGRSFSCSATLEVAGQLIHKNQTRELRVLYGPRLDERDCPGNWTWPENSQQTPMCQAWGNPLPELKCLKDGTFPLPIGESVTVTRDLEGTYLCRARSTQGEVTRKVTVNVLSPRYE
T2 sequence (P02769 25-607 limits assumed): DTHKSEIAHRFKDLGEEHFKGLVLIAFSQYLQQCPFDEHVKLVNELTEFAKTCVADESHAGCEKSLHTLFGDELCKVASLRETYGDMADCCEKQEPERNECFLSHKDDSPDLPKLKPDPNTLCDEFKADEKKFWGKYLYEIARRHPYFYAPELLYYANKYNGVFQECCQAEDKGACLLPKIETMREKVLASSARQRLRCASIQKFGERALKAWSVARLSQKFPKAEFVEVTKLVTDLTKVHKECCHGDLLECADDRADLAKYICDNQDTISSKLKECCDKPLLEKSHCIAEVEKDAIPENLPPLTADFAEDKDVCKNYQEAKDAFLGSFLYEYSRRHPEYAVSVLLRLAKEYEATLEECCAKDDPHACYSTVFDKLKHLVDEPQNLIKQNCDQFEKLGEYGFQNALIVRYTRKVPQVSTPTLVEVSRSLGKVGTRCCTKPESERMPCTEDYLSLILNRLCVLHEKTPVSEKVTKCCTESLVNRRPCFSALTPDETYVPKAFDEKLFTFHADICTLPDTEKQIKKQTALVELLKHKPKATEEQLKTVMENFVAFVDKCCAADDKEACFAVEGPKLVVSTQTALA

B1: XT-H2 VL-VH ScFv construct (scFv)
scFv: DVVLTQTPLSLPVNIGDQASISCKSTKSLLNSDGFTYLDWYLQKPGQSPQLLIYLVSDRFSGVPDRFSGSGSGTDFTLTISRVEAEDLGVYYCFQSNSLPLTFGSGTKLEIKDGGGSGGGGSGGGGSSQVQLQQSGAELAKPGASVKMSCKASGYTFTTYWMHWVKQRPGQGLYWIGYINPSTGYTEYNQKFKDKATLTADKSSSTAYMQLSSLTSEDSAVYYCARWAGYTIDYWGQGTSVTVSS
notes: Tags (Flag when translated in vitro, His when made in E. coli) are inferred from the detection antibodies
binding result [1]: binds
binding result [2]: no binding

B2: XT-M4-hVH-V2.0-2m/hVL-V2.10 (antibody, V domains shown)
VH: EVQLVESGGGLVQPGGSLRLSCAASGFTFNNYWMTWVRQAPGKGLEWVASIDNSGDNTYYPDSVKDRFTISRDNAKNSLYLQMNSLRAEDTAVYYCARGGDITTGFDYWGQGTLVTVSS
VL: DIQMTQSPSSLSASVGDRVTITCRASQDVGIYVNWFQQKPGKAPKRLIYRATNLADGVPSRFSGSGSGTDFTLTISSLQPEDFATYYCLEFDEHPLTFGGGTKVEIK
notes: '2m' is not explained; also called XT-M4-hVH-2.0-2m/hVL-V2.10
OD450 [3]: 0.004
OD450 [4]: 0.001
OD450 [5]: 0.01
OD450 [6]: 3.81
OD450 [7]: 0.01
OD450 [8]: 0.007
OD450 [9]: 0.007
OD450 [10]: 0.016

B3: XT-M4-hVH-V2.0-2m/hVL-V2.11 (antibody, V domains shown)
VH: B2 VH
VL: B2 VL with K45R, G66R
notes: '2m' is not explained
OD450 [3]: 0.011
OD450 [4]: 0.003
OD450 [5]: 0.012
OD450 [6]: 3.83
OD450 [7]: 0.009
OD450 [8]: 0.004
OD450 [9]: 0.022
OD450 [10]: 0.01

B5: XT-H5 (antibody, mouse IgG1, V domains shown)
VH: EVLLQQSGPELVKPGASVKISCKASGYTFTDYNMDWVKQSHGKSLEWIGDINPDNGGTIYKQKFKGKATLTVDKSSSTAYMELRSLTSEDTAVYYCTTHDHYYYALDYWGQGTSVTVSS
VL: not shown
notes: also called 1hRAGEP3/55
Ka [13]: 3.69e+08 M⁻¹
Kd [13]: 2.71 nM
koff [13]: 0.00451 s⁻¹
kon [13]: 1.66e+06 M⁻¹ s⁻¹
binding result [14]: binds

Other lines, results leading:

binding result [11]: binds
binding result [12]: binds
B4: XT-H3 (antibody, mouse IgG1, V domains shown)
VH: QVQLQQPGSELVRPGASVKLSCKTSGYTFTNYWMHWVKQRHGQGLEWIGNLYPGSGRTNYDEKFKSKVTLTEDTSSSTAYMHLSNLTSEDSAVYYCTSLRRGFVYWGQGTLVTVSA
VL: NIVMTQSPEYMSMSFGERVTLTCKASENVGSYVSWYQQKSEQSPKLLIYGASNRYTGVPDRFTGSGSATDFTLTITSVQAEDLADYHCGQTYTYPYTFGGGTKLEIK
notes: also called 1hRAGEP3/18

binding result [11]: binds
binding result [12]: binds
B6: XT-H7 (antibody, mouse IgG1, V domains shown)
VH: QVQLKESGPGLVAPSQSLSITCTVSGFSLTNYGVHWVRQPPGKGLEWLGVMWAGGSTTYNSALMSRLSISKDNSKSQVFLKMNSLQTDDTAMYYCARYGNYAMDYWGQGTSVTVSS
VL: DIQMTQSPSSLSASLGGKVTITCKASQDIYKYIAWYQHKPGKGPRLLIHYTSTLQPGIPSRFSGSGSGRDYSFSISNLEPEDIATYYCLRYDNLYTFGGGTKLEIK
notes: also called 1hRAGEP3/66
